Where a chain is given by its changes, count along the chain named.
B1: antibody 37C (antibody, human IgG1, kappa, V domains shown)
VH: QVQLKQSGAELVRPGASVKLSCKASGYTFTDYYINWVKQRPGQGLEWIARIYPGSGNTYYNEKFKGKATLTAEKSSSTAYMQLSSLTSEDSAVYFCARGVYYFDYWGQGTTLTVSA
VL: DIVMTQSQKFMSTSVGDRVSVTCKASQNVRTNVAWYQQKPGQSPKALIYSASYRYSGVPDRFTGSGSGTDFTLTISNVQSEDLADYFCQQYNSYPRTFGGGTKLEIKR
notes: also called chimeric antibody 37C
B2: antibody 37M (antibody, V domains shown)
VH: B1 VH with A116S
VL: B1 VL

What was measured:
[1] = target: T1, recombinant KIT D4/D5 polypeptide (D4/D5 region of human KIT, V308 to H515, with 5xHis tag) (human, UniProt P10721 26-519); test: competition solid phase ELISA on KIT D4/D5 antigen; 37C titrated with competitor 37M at 10 nM
T1 construct: also called KIT D4/D5 antigen; KIT immunogen
T1 sequence (P10721 other isoform, or with tags, fused parts or gaps): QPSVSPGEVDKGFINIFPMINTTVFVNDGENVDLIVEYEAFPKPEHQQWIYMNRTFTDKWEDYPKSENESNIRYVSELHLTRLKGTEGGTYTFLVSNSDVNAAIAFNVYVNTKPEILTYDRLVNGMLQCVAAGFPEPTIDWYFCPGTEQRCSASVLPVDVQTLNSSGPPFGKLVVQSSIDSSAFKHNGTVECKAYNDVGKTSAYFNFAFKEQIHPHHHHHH
Procedure: (§1) Competitive binding assays were carried out with antibody 37M or 37C as described below and using solid phase ELISA as described in Example 2 (Section 6.2). In particular, serial dilutions of the reference antibody (either 37M or 37C) were combined with constant concentrations of a competing antibody (37M in the case of 37C, and 37C in the case of 37M) and incubated in wells of 96-well plates coated with a recombinant KIT polypeptide containing the D4/D5 region depicted in FIG. 2A. Reference antibody binding was then detected through the use of an HRP-conjugated, species-specific secondary antibody. Antibody 37M has a mouse constant region while antibody 37C has a human constant region. Therefore, when antibody 37M was used as a reference antibody and antibody 37C was used as a competing antibody, the reference antibody was detected using an anti-mouse IgG secondary antibody; and when antibody 37C was used as a reference antibody and antibody 37M was used as a competing antibody, the reference antibody was detected using an anti-human IgG secondary antibody. […]
(§2) Eight, 3-fold dilutions of the reference antibody samples were prepared beginning at 20 nM (2×), and combined 1:1 with a 20 nM solution of the competing antibody to yield final 1× values. […] The plates were processed similarly as described above for data collection on a plate reader. […]

[2] = target: T1, recombinant KIT D4/D5 polypeptide …; test: solid phase ELISA, antigen coated on the plate
Procedure: The binding activity of antibodies 37M and 37C obtained from mice immunized with a KIT immunogen containing the D4/D5 region of the human KIT extracellular region was characterized by solid phase ELISA. […] The binding affinity of antibody 37C for an antigen containing the D4/D5 region (see FIG. 2A) of human KIT was also tested by solid phase ELISA. The general protocol used for the solid phase ELISA experiments are described below.
Preparation of antibody sample with serial dilution: Dilution buffer (100 μL) was added to columns 1 and 7 of a 96 well plate, and 50 μL of dilution buffer were added to all the remaining wells. The test antibody (100 μL) was added to the first well containing 100 μL dilution buffer, mixed by pipetting, and 50 μL from the first well were removed and added into the second well and mixed. This dilution step was repeated across the row until the dilution step was repeated for a total of six dilutions. This dilution process was repeated for each sample.
ELISA: The plate with the absorbed antigen was removed from the −80° C. freezer and was allowed to thaw at room temperature. The borate buffer was removed by flicking the plate into the sink and blotting the plate dry. Blocking buffer (200 μL) was added to each well and was allowed to incubate at room temperature for one hour. The blocking buffer was removed, again by flicking the plate into the sink. […]

[3] = target: T1, recombinant KIT D4/D5 polypeptide …; test: competition solid phase ELISA on KIT D4/D5 antigen; 37C titrated alone, without competitor
Procedure: as §1, §2

[4] = target: full-length, wild-type human KIT receptor expressed on cells (human, UniProt P10721 26-976); test: cell-based or functional assay
Chain of full-length, wild-type human KIT receptor expressed on cells (P10721 other isoform, or with tags, fused parts or gaps limits assumed): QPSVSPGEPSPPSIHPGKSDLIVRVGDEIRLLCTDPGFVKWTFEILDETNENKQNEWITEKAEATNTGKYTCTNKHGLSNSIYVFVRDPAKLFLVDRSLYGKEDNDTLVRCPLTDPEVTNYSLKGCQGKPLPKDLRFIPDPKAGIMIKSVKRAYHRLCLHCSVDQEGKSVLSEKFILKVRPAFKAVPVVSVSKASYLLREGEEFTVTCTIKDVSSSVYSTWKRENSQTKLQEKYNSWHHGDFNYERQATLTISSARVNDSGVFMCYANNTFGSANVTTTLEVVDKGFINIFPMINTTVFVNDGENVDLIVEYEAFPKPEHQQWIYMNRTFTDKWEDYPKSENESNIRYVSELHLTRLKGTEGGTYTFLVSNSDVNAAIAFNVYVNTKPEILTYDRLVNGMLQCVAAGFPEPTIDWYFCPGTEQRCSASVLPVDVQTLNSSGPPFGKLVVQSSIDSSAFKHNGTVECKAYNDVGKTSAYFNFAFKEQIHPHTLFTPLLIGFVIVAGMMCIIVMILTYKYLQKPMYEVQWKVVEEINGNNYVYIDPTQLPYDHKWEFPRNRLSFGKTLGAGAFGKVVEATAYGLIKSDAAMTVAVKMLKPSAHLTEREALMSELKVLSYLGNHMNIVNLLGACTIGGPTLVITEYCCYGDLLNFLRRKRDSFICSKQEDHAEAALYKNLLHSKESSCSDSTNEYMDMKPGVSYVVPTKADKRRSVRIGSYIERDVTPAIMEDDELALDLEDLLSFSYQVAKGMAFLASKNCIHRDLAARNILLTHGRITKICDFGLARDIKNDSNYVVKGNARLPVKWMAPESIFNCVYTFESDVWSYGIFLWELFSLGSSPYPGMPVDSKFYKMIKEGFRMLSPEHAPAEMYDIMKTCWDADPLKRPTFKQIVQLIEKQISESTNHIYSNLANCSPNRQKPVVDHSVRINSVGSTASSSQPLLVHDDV

| Binder | EC50 [1] [nM] | EC50 [2] [nM] | EC50 [3] [nM] | 50% inhibition concentration (IC50), cell-based phospho-KIT assay, unsorted CHO/KIT-WT cells (FIG. 8) [4] [nM] | IC50, cell-based phospho-KIT assay, sorted (high KIT expression) CHO/KIT-WT cells (FIG. 11B) [4] [nM] |
| --- | --- | --- | --- | --- | --- |
| B1 | 1 | ~0.196 | 0.048 | ~0.167 | ~0.334 |
| B2 |  |  |  |  | ~0.315 |

Source: US20120189633A1 (KOLLTAN PHARMACEUTICALS, published 2012)
